Data: article PMC10082157

Experiments:
[1] = target: TCR–CD3 complex on T cells (human (endogenous in Jurkat and primary T cells)) (UniProt P07766)
[2] = target: human CD19 (human (endogenous in Raji)) (UniProt P15391)
human CD19 (human (endogenous in Raji)), sequence (P15391 20-556): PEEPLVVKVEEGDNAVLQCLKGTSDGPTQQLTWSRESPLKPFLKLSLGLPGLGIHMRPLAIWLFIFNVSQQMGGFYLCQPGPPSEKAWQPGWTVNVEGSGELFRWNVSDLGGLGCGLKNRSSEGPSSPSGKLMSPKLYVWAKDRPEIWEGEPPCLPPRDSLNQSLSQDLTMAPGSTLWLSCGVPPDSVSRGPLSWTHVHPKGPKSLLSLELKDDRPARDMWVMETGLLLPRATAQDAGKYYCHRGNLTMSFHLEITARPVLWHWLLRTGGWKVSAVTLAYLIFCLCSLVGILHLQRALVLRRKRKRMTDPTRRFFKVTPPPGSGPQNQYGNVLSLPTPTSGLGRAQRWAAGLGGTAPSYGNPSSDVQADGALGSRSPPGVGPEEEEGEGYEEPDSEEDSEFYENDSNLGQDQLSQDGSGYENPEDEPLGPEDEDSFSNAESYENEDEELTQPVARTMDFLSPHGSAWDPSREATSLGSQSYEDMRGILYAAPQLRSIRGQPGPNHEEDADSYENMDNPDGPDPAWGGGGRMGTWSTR

TCR–CD3 complex on T cells (human (endogenous in Jurkat and primary T cells)), sequence (P07766 whole entry, looked up, one chain of several): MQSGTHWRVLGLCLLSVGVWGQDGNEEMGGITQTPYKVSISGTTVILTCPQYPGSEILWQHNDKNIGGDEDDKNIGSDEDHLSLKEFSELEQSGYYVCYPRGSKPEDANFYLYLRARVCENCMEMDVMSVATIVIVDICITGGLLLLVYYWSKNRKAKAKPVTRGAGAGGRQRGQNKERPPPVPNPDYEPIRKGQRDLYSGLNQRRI

activation of Jurkat-ZsG NFAT reporter cells (ZsGreen) in droplets with CD19+ Raji cells and 100 ng/ml Blinatumomab; percent activated [1]: 40%
activation of Jurkat-ZsG NFAT reporter cells (ZsGreen) in droplets with CD19+ Raji cells and 100 ng/ml Blinatumomab; percent activated [2]: 40%
Substance: Blinatumomab (CD19xCD3 BiTE) (bispecific antibody)
